Experiments:
[1] = biological target: T1, LILRB2 chimeric receptor on LILRB2 reporter cells (extracellular domain of LILRB2 fused with … (UniProt Q8N423 22-460)); assay: flow cytometry on LILRB2 reporter cells, APC anti-human IgG
T1 construct: extracellular domain;domain: transmembrane/intracellular domains; associates with DAP12; also called LILRB2-expressing reporter cells
Excerpt: FIGS. 1A-C. Screening specific monoclonal antibodies for LILRB2. […] Binding of monoclonal antibodies was screened using flow cytometer on LILRB2 reporter cells. Bound antibodies were detected with Allophycocyanin (APC)-labeled goat anti-human IgG secondary antibody. (FIG. 1B) Quantification of binding ability of monoclonal antibodies to LILRB2 reporter cells.
Screening specific monoclonal antibodies for LILRB2. The inventors employed a stable reporter cell system to detect the binding ability of selected monoclonal antibodies to LILRB2. In this chimeric receptor reporter system, the extracellular domain (ECD) of LILRB2 is fused with transmembrane/intracellular domains of PILRb that associates with the adaptor protein DAP12 containing an immunoreceptor tyrosine-based activation motif. 27 monoclonal antibodies were screened. The LILRB2 reporter cells were incubated with selected monoclonal antibody, then labeled with (APC) goat anti-human IgG secondary antibody. […] The inventors generated LILRBAs and LILRBs reporters stably transduced with each receptor's extracellular domain (ECD).

[2] = biological target: T2, LILRA1 on reporter cells (extracellular domain) (UniProt O75019 17-461, limits assumed); assay: flow cytometry, reporter cells
T2 construct: extracellular domain
T2 sequence (O75019 17-461 limits assumed): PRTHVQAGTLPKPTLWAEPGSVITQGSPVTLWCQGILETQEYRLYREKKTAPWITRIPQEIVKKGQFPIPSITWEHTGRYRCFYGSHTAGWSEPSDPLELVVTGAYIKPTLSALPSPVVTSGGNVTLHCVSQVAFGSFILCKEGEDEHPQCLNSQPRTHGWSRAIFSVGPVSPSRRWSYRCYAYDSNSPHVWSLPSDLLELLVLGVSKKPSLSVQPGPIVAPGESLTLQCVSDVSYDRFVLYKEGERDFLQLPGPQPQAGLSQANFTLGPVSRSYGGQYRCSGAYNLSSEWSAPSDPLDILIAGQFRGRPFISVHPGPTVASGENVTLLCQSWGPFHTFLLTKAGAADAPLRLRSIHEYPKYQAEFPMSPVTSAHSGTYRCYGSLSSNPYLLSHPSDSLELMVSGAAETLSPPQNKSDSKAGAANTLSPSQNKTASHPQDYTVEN
Protocol: (§1) FIG. 29. Binding of LILRB2 antibodies on reporter cell line expressing ectodomain of LILR family proteins on cell surface. Bound antibodies were detected with anti-human Fc-specific secondary antibody (2nd Ab) conjugated to AF647. […] All incubations were performed for 30 minutes at 4° C. Data shown is mean fluorescence intensity after sample acquisition in flow cytometer.

[3] = biological target: T3, LILRB1; assay: flow cytometry, reporter cells
T3 construct: also called LILRB1 reporter cells; not shown: transmembrane/intracellular domains of PILRb, the display part of the chimeric reporter receptor
T3 sequence (chain, as listed by the source limits assumed): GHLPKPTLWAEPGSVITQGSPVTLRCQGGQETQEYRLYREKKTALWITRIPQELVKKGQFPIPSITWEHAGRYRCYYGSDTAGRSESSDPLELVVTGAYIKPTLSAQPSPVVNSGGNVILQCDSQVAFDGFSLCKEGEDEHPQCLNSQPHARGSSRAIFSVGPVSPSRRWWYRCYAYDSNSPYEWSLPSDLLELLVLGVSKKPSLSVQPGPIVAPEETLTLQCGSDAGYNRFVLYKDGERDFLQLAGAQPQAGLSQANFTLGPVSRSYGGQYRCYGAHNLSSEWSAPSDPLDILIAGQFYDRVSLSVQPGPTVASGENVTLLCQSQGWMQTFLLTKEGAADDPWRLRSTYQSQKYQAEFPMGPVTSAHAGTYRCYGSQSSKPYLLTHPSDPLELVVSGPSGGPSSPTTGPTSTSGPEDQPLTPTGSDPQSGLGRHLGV
Protocol: as §1

[4] = biological target: T4, LILRB4; assay: flow cytometry, reporter cells
T4 construct: also called LILRB4 reporter cells; not shown: transmembrane/intracellular domains of PILRb, the display part of the chimeric reporter receptor
Protocol: as §1

[5] = biological target: T5, LAIR1 on reporter cells (UniProt Q6GTX8 22-165, limits assumed); assay: flow cytometry, reporter cells
T5 sequence (looked up): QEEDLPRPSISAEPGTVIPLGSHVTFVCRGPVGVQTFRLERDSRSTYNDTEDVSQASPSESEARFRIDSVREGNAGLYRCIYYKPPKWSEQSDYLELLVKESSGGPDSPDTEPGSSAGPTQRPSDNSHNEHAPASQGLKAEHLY
Protocol: as §1

[6] = biological target: T6, LILRA3; assay: flow cytometry, reporter cells
T6 construct: also called LILRA3 reporter cells; not shown: transmembrane/intracellular domains of PILRb, the display part of the chimeric reporter receptor
T6 sequence (chain, as listed by the source limits assumed): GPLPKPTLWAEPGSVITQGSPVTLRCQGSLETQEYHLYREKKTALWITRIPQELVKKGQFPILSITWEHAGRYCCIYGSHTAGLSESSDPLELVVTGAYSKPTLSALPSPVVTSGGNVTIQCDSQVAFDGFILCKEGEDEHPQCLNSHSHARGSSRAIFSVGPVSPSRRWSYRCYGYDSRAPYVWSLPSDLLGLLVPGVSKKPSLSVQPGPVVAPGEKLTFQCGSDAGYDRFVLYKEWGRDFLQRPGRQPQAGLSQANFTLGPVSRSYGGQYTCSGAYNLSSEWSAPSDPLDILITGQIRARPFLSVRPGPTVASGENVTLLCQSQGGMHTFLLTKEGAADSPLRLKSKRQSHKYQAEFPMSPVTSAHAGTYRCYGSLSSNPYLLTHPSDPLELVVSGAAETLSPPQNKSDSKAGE
Protocol: as §1

[7] = biological target: T7, LILRA2; assay: flow cytometry, reporter cells
T7 construct: also called LILRA2 reporter cells; not shown: transmembrane/intracellular domains of PILRb, the display part of the chimeric reporter receptor
T7 sequence (chain, as listed by the source limits assumed): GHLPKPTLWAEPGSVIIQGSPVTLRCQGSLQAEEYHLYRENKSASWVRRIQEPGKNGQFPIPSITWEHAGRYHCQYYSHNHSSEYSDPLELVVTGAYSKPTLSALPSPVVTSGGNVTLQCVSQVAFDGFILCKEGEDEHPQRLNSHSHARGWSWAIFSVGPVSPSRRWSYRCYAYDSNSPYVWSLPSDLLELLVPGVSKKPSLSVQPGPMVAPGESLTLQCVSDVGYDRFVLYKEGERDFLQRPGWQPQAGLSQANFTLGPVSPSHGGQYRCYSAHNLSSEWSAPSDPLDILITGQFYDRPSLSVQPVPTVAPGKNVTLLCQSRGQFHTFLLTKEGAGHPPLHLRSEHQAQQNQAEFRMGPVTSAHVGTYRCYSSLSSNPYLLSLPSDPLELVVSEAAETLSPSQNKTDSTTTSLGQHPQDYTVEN
Protocol: as §1

[8] = biological target: T8, LILRA6; assay: flow cytometry, reporter cells
T8 construct: also called LILRA6 reporter cells
T8 sequence (chain, as listed by the source limits assumed): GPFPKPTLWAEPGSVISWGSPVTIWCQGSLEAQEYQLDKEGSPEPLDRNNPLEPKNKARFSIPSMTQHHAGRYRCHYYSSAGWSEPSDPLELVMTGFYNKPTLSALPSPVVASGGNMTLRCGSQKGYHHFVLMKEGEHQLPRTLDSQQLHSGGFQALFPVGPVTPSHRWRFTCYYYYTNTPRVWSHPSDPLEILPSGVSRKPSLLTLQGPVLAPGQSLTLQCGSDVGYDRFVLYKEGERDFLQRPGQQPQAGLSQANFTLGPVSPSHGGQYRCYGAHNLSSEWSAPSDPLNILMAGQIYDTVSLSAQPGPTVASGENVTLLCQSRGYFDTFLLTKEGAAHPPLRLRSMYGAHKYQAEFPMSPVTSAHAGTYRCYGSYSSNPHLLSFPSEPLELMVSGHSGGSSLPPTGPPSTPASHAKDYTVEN
Protocol: as §1

[9] = biological target: T9, LILRA5; assay: flow cytometry, reporter cells
T9 construct: also called LILRA5 reporter cells
T9 sequence (chain, as listed by the source limits assumed): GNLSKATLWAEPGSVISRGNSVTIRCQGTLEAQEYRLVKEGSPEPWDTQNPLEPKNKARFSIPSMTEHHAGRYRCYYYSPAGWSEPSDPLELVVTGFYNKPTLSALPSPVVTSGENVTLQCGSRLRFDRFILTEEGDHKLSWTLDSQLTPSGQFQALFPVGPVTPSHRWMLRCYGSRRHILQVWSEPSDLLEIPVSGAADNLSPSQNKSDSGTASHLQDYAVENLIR
Protocol: as §1

[10] = biological target: T10, LILRB3; assay: flow cytometry, reporter cells
T10 construct: also called LILRB3 reporter cells; not shown: transmembrane/intracellular domains of PILRb, the display part of the chimeric reporter receptor
Protocol: as §1

[11] = biological target: T11, LILRA4; assay: flow cytometry, reporter cells
T11 construct: also called LILRA4 reporter cells
T11 sequence (chain, as listed by the source limits assumed): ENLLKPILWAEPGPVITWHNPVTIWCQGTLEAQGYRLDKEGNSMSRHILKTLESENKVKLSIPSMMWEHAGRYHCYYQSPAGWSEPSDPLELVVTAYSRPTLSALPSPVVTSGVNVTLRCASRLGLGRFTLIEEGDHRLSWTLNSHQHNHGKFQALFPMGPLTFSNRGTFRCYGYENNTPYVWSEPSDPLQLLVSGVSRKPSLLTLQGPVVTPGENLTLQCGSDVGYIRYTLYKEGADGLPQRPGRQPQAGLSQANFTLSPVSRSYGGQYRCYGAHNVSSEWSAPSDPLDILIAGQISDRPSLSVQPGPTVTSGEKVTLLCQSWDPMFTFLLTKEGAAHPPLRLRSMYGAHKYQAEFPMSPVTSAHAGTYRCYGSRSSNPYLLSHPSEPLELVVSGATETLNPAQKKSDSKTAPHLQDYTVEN
Protocol: as §1

[12] = biological target: T12, LILRB5; assay: flow cytometry, reporter cells
T12 construct: also called LILRB5 reporter cells; not shown: transmembrane/intracellular domains of PILRb, the display part of the chimeric reporter receptor
T12 sequence (chain, as listed by the source limits assumed): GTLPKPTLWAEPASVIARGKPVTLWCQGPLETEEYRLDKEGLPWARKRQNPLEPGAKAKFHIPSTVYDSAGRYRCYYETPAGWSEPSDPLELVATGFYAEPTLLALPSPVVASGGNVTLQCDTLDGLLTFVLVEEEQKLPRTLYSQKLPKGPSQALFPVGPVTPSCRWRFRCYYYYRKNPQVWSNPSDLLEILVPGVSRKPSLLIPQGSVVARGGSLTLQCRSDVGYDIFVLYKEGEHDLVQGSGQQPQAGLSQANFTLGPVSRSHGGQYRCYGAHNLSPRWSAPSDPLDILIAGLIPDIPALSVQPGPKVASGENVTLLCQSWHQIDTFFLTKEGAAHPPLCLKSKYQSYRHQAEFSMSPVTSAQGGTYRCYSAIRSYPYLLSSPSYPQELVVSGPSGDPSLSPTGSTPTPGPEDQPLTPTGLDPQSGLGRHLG
Protocol: as §1

[13] = biological target: T1, LILRB2 chimeric receptor on LILRB2 …; assay: flow cytometry, reporter cells
Protocol: as §1

[14] = biological target: T13, full length human LILRB2 stably expressed on HEK293 cells (human, UniProt Q8N423 22-597); assay: flow cytometry, HEK293 cells expressing full length human LILRB2
T13 construct: whole, on cells; also called HEK293_LILRB2
Protocol: FIG. 31. Binding of LILRB2 antibodies on HEK293 stably expressing full length human LILRB2. Fifty thousand cells were incubated with a dilution series (40-0.0006 μg/mL) of LILRB2 antibodies in a final volume of 100 μL. Bound antibodies were detected with anti-human Fc-specific secondary antibody conjugated to AF647. All incubations were performed for 30 minutes at 4° C. Data shown is averaged geometric mean fluorescence intensity ± standard error of the mean (s.e.m.) after sample acquisition (in duplicates) in flow cytometer (BD FACS Celesta) and subtracted by background fluorescence of samples incubated with secondary antibody only.

[15] = biological target: T14, LILRB2 (antigen in solution, Octet RED 96) (UniProt Q8N423 22-460, limits assumed); assay: BLI (Octet RED 96), antibody on protein A biosensor, LILRB2 in solution
T14 construct: also called LILRB2 solution
Protocol: Affinity measurement of blocking antibodies. Affinities of the 5 blocking antibodies were measured on Octet RED 96 system.

[16] = biological target: T13, full length human LILRB2 stably …; assay: competition flow cytometry, inhibition of SEMA4A-hFc-AF647 binding to HEK293_LILRB2 cells
Protocol: FIG. 34. […] Incubation was performed for 30 minutes at 4° C. Data shown is averaged geometric mean of fluorescence intensity ± standard error of the mean (s.e.m.) from duplicate samples acquired in a flow cytometer (BD FACS Celesta).

percent of LILRB2 reporter cells labeled [1]: > 95% | MFI [2]: 11 | binding result [2]: no binding | MFI [3]: 9 | binding result [3]: no binding | MFI [4]: 13 | binding result [4]: no binding | MFI [5]: 23 | binding result [5]: no binding | MFI [6]: 10 | binding result [6]: no binding | MFI [7]: 10 | binding result [7]: no binding | MFI [8]: 11 | binding result [8]: no binding | MFI [9]: 10 | binding result [9]: no binding | MFI [10]: 10 | binding result [10]: no binding | MFI [11]: 10 | binding result [11]: no binding | MFI [12]: 10 | binding result [12]: no binding | MFI [13]: 1100 | EC50 [14]: 0.105 µg/mL | Kd [15]: 35.9 nM | koff [15]: 0.0121 s⁻¹ | kon [15]: 338000 M⁻¹ s⁻¹ | IC50 [16]: 0.657 µg/mL
B1: B2-17 (antibody, V domains shown)
VH: EVQLLDSGPRLLKPSETLSLTCGVSGVSTSSTHWWSWVRQTPGKGLEWIGEILHNGNTNSNPSLKSRVSMSIDKSRNQFSLQLKSMTAADTAVYYCASASPNWGASGAFDAWAQGTMVTVSS
VL: QSVLTQPPSASATPGQRVTISCSGSSSNIGSNPVNWYQQVPGMAPELVMYSDNQRPSGVPDRFSGSNSGTSASLAISGLQSEDEADYYCSTWDDSLNGLVFGTGTKVTVL
notes: also called B2-17_HC; B2-17_LC

Source: patent US20230068663A1 (University of Texas, published 2023)
